Measurements: IntAct's records for PubMed 22333915

B1: Transcription factor NRM1 (Saccharomyces cerevisiae), P53718 (parent)
chain: MSIMKQRLPLGEFSSSKINKLAIANIADASEPRNHGENNVGTVCLPSIKSLMVSPEVYENTKSLPVPLMRSSGGGMACASKSSCQDGISTKTTSRDYSELSKKLQIRLQFAYYKYKTKQTDKNFTDLKSKHSITRPSKVATHSKSEPLTRRRKLVLSQGHYKTPARSKIKTPSSICSHDNTSSFTSFRGVSESSSTTADMNVADTTTPIRNNINTKHSNSHNRTLYQRQETPTSIKAAKSLIHLFTSNQ

Variants of: B1
Conditions: with rad53_yeast RAD53, P22216
Chain of rad53_yeast RAD53, P22216 (P22216 whole entry): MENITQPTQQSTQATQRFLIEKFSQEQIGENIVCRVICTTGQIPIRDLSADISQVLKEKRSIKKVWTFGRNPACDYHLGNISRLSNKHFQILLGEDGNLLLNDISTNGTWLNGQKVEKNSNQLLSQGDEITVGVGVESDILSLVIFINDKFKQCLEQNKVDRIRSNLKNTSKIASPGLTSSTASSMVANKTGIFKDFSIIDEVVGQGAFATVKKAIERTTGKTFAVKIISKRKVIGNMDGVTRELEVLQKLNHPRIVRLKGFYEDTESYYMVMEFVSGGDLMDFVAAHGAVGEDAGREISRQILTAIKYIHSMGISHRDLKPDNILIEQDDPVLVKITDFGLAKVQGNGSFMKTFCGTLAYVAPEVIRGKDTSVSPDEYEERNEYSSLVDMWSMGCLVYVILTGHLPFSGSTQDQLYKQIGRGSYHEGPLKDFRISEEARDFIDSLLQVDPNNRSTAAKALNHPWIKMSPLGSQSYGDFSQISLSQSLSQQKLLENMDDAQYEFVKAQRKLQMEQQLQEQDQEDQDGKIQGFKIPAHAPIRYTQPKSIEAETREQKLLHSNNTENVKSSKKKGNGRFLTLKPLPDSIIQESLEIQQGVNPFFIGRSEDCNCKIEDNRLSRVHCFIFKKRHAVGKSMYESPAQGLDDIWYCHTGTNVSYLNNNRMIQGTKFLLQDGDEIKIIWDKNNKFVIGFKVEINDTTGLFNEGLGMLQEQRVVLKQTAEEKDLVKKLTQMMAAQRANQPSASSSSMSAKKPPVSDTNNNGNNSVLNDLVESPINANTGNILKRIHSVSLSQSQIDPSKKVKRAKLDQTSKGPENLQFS

MSIMKQRLPLGEFSSSKINKLAIANIADASEPRNHGENNVGAVCLPAIKSLMVSPEVYENTKSLPVPLMRSSGGGMACASKSSCQDGISTKTTSRDYSELSKKLQIRLQFAYYKYKTKQTDKNFTDLKSKHSITRPSKVATHSKAEPLTRRRKLVLSQGHYKTPARSKIKTPSSICSHDNTSSFTSFRGVSESSSTTADMNVADTTTPIRNNINTKHSNSHNRTLYQRQETPTSIKAAKALIHLFTSNQ [T42A;S47A;S145A;S240A] was tested. Which “effect of a mutation on the interaction” value did it give?
Its value is “decreasing interaction”.
